According to the Human Domainome abundance scans (Beltran et al. 2025):
± gives the uncertainty stated by the source.

B1: Kinesin-like protein KIF16B, residues 1213 to 1273; numbered along this chain, Q96L93 (parent)
chain: ETWTVFRRYSRFREMHKTLKLKYAELAALEFPPKKLFGNKDERVIAERRSHLEKYLRDFFS

Variants of: B1
Experiment: abundance fitness (aPCA) (normalised: wild type 0, dead -1); higher = more abundant; growth selection in yeast, the domain comes from the species named
Settings: Homo sapiens

Variant	abundance fitness
ETWTVFRRYSRFREMHKTLKLKYAELAALIFPPKKLFGNKDERVIAERRSHLEKYLRDFFS [E30I]	0.539 ± 0.079
ETWTVFRRYSRFREMHKTLKLKYAELAALNFPPKKLFGNKDERVIAERRSHLEKYLRDFFS [E30N]	0.071 ± 0.096
ETWTVFRRYSRFREMHKTLKLKYAELAALSFPPKKLFGNKDERVIAERRSHLEKYLRDFFS [E30S]	0.151 ± 0.065
ETWTVFRRYSRFREMHKTLKLKYAELAALMFPPKKLFGNKDERVIAERRSHLEKYLRDFFS [E30M]	0.347 ± 0.072
ETWTVFRRYSRFREMHKTLKLKYAELAALVFPPKKLFGNKDERVIAERRSHLEKYLRDFFS [E30V]	0.372 ± 0.042
ETWTVFRRYSRFREMHKTLKLKYATLAALEFPPKKLFGNKDERVIAERRSHLEKYLRDFFS [E25T]	-0.468 ± 0.093
ETWTVFRRYSRFREMHKTLKLKYAQLAALEFPPKKLFGNKDERVIAERRSHLEKYLRDFFS [E25Q]	0.015 ± 0.12
ETWTVFRRYSRFREMHKTLKLKYAVLAALEFPPKKLFGNKDERVIAERRSHLEKYLRDFFS [E25V]	-0.475 ± 0.063
ETWTVFRRYSRFREMHKTLKLKYAKLAALEFPPKKLFGNKDERVIAERRSHLEKYLRDFFS [E25K]	-0.144 ± 0.069
ETWTVFRRYSRFREMHKTLKLKYAMLAALEFPPKKLFGNKDERVIAERRSHLEKYLRDFFS [E25M]	-0.409 ± 0.2
ETWTVFRRYSRFREMHKTLKLKYASLAALEFPPKKLFGNKDERVIAERRSHLEKYLRDFFS [E25S]	-0.238 ± 0.042
ETWTVFRRYSRFREMHKTLKLKYARLAALEFPPKKLFGNKDERVIAERRSHLEKYLRDFFS [E25R]	-0.352 ± 0.06
ETWTVFRRYSRFREMHKTLKLKYALLAALEFPPKKLFGNKDERVIAERRSHLEKYLRDFFS [E25L]	-0.465 ± 0.084
ETWTVFRRYSRFREMHKTLKLKYAYLAALEFPPKKLFGNKDERVIAERRSHLEKYLRDFFS [E25Y]	-0.542 ± 0.12
ETWTVFRRYSRFREMHKTLKLKYAELAWLEFPPKKLFGNKDERVIAERRSHLEKYLRDFFS [A28W]	-0.177 ± 0.11
ETWTVFRRYSRFREMHKTLKLKYAELAVLEFPPKKLFGNKDERVIAERRSHLEKYLRDFFS [A28V]	-0.912 ± 0.18
ETWTVFRRYSRFREMHKTLKLKYAELASLEFPPKKLFGNKDERVIAERRSHLEKYLRDFFS [A28S]	-0.129 ± 0.1
ETWTVFRRYSRFREMHKTLKLKYAELAPLEFPPKKLFGNKDERVIAERRSHLEKYLRDFFS [A28P]	-0.424 ± 0.11
ETWTVFRRYSRFREMHKTLKLKYAELAFLEFPPKKLFGNKDERVIAERRSHLEKYLRDFFS [A28F]	-0.116 ± 0.34
ETWTVFRRYSRFREMHKTLKLKYAELACLEFPPKKLFGNKDERVIAERRSHLEKYLRDFFS [A28C]	-0.156 ± 0.13
ETWTVFRRYSRFREMHKTLKLKYAELAYLEFPPKKLFGNKDERVIAERRSHLEKYLRDFFS [A28Y]	-1.03 ± 0.39
ETWTVFRRYSRFREMHKTLKLKYAELARLEFPPKKLFGNKDERVIAERRSHLEKYLRDFFS [A28R]	-0.036 ± 0.053

Variant	abundance fitness
ETWTVFRRYSRFREMHKTLKLKYAELATLEFPPKKLFGNKDERVIAERRSHLEKYLRDFFS [A28T]	0.009 ± 0.08
ETWTVFRRYSRFREMHKTLKLKYAELAMLEFPPKKLFGNKDERVIAERRSHLEKYLRDFFS [A28M]	-0.433 ± 0.16
ETWTVFRRYSRFREMHKTLKLKYAELAGLEFPPKKLFGNKDERVIAERRSHLEKYLRDFFS [A28G]	-0.101 ± 0.072
ETWTVFRRYSRFREMHKTLKLKYAELAILEFPPKKLFGNKDERVIAERRSHLEKYLRDFFS [A28I]	-0.311 ± 0.49
ETWTVFRRYSRFREMHKTLKLKYAELAKLEFPPKKLFGNKDERVIAERRSHLEKYLRDFFS [A28K]	-0.094 ± 0.17
ETWTVFRRYSRFREMHKTLKLKYAELNALEFPPKKLFGNKDERVIAERRSHLEKYLRDFFS [A27N]	-0.281 ± 0.16
ETWTVFRRYSRFREMHKTLKLKYAELGALEFPPKKLFGNKDERVIAERRSHLEKYLRDFFS [A27G]	-0.293 ± 0.047
ETWTVFRRYSRFREMHKTLKLKYAELQALEFPPKKLFGNKDERVIAERRSHLEKYLRDFFS [A27Q]	0.166 ± 0.09
ETWTVFRRYSRFREMHKTLKLKYAELTALEFPPKKLFGNKDERVIAERRSHLEKYLRDFFS [A27T]	0.127 ± 0.078
ETWTVFRRYSRFREMHKTLKLKYAELDALEFPPKKLFGNKDERVIAERRSHLEKYLRDFFS [A27D]	-0.388 ± 0.11
ETWTVFRRYSRFREMHKTLKLKYAELKALEFPPKKLFGNKDERVIAERRSHLEKYLRDFFS [A27K]	0.286 ± 0.055
ETWTVFRRYSRFREMHKTLKLKYAELMALEFPPKKLFGNKDERVIAERRSHLEKYLRDFFS [A27M]	0.246 ± 0.091
ETWTVFRRYSRFREMHKTLKLKYAELLALEFPPKKLFGNKDERVIAERRSHLEKYLRDFFS [A27L]	-0.02 ± 0.061
ETWTVFRRYSRFREMHKTLKLKYAELVALEFPPKKLFGNKDERVIAERRSHLEKYLRDFFS [A27V]	-0.041 ± 0.058
ETWTVFRRYSRFREMHKTLKLKYAELFALEFPPKKLFGNKDERVIAERRSHLEKYLRDFFS [A27F]	-0.215 ± 0.32
ETWTVFRRYSRFREMHKTLKLKYAELRALEFPPKKLFGNKDERVIAERRSHLEKYLRDFFS [A27R]	0.245 ± 0.053
ETWTVFRRYSRFREMHKTLKLKYAELSALEFPPKKLFGNKDERVIAERRSHLEKYLRDFFS [A27S]	-0.099 ± 0.069
ETWTVFRRYSRFREMHKTLKLKYAELWALEFPPKKLFGNKDERVIAERRSHLEKYLRDFFS [A27W]	-0.362 ± 0.073
ETWTVFRRYSRFREMHKTLKLKYAELCALEFPPKKLFGNKDERVIAERRSHLEKYLRDFFS [A27C]	0.099 ± 0.087
ETWTVFRRYSRFREMHKTLKLKYAELAALEAPPKKLFGNKDERVIAERRSHLEKYLRDFFS [F31A]	-0.573 ± 0.18
ETWTVFRRYSRFREMHKTLKLKYAELAALEDPPKKLFGNKDERVIAERRSHLEKYLRDFFS [F31D]	-0.946 ± 0.38
ETWTVFRRYSRFREMHKTLKLKYAELAALECPPKKLFGNKDERVIAERRSHLEKYLRDFFS [F31C]	-0.644 ± 0.15
